# Source: patent publication US6699481B2, “Peptides for inhibition of herpes simplex virus entry” (priority 1998, dated 2004)
# Bridge positions count the residues as written; N and C are the ends. Ends that are not written are not given here. * marks the point of attachment. Acm = CC(=O)NC*
# T1: HveA (200t) (Homo sapiens, UniProt Q92956)
# T1 sequence (Q92956 39-202 limits assumed): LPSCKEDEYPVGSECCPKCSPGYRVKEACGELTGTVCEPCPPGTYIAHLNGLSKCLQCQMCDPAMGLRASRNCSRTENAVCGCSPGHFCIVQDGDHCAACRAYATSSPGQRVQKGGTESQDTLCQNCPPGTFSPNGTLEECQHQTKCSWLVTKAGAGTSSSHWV
# T2: HveA (200t) (Homo sapiens, UniProt Q92956)
# T2 sequence (Q92956 39-200): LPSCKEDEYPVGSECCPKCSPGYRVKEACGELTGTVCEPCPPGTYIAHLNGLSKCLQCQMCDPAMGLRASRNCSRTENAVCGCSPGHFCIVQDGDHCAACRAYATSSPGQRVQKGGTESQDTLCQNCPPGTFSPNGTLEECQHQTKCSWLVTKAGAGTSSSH
# B1: gD-1 (306t): soluble wild type HSV glycoprotein D, from recombinant baculovirus-infected cells (protein)
# chain: KYALVDASLKMADPNRFRGKDLPVLDQLTDPPGVRRVYHIQAGLPDPFQPPSLPITVYYAVLERACRSVLLNAPSEAPQIVRGASEDVRKQPYNLTIAWFRMGGNCAIPITVMEYTECSYNKSLGACPIRTQPRWNYYDSFSAVSEDNLGFLMHAPAFETAGTYLRLVKINDWTEITQFILEHRAKGSCKYALPLRIPPSACLSPQAYQQGVTVDSIGMLPRFIPENQRTVAVYSLKIAGWHGPKAPYTSTLLPPELSETPNATQPELAPEDPEDSALLEDPVGTVAPQIPPNWHIPSIQDAATPY
# modifications: left off: small tags and cut ends
# notes: soluble wild type HSV glycoprotein D, from recombinant baculovirus-infected cells
# Tests used:
# [1] = target: T1, HveA (200t); assay: competition ELISA, binding of phage displaying BP-1 or BP-2 with HveA
# Procedure: (§1) Several ELISAs were performed to analyze interaction among HveA, the isolated phage peptides, gD, and LT-α. In these assays, microtiter wells were coated for 2 hours at 22° C. with 40 nanograms of HveA(200t), human factor H, trout complement C3, BSA, milk, or ovalbumin. Nonspecific binding in the wells was blocked using PBS containing 1% (w/v) BSA for 1 hour at 22° C. For competition assays, serial dilutions of gD-1 (306t), gD-1 (Δ290-299t), BSA, peptide BP-1, BP-2, or an unrelated cyclic peptide having the amino acid sequence ICVVQDWGHHRCT (SEQ ID NO:3) was added to each well. After 30 minutes of incubation at 22° C., recombinant protein (i.e., gD-1 (306t) at 0.4 microgram per milliliter, gD-1 (Δ290-299t) at 0.1 microgram per milliliter, or LT-α at 20 nanomolar), or phage supernatant was added to the well, and the samples were incubated for 1 hour. The wells were washed twice with PBS containing 0.05% (v/v) Tween-20 and incubated for one hour at 22° C. with at least one of the following: (i) a 1:1000 dilution of a peroxidase-labeled anti-M13 antibody, (ii) a 1:400 dilution of an anti-gD polyclonal antibody (R7), or (iii) an anti-LT-α monoclonal antibody (AG9).
# (§2) Following incubation with the antibody, the wells were washed twice with PBS containing 0.05% (v/v) Tween-20 and incubated for 30 minutes at 22° C. with a 1:1000 dilution of a peroxidase-conjugated goat anti-rabbit immunoglobulin G (for polyclonal antibody detection) or with goat anti-mouse immunoglobulin G (for monoclonal antibody detection; Bio-Rad Laboratories, Richmond, Calif.). Color was developed by adding 2,2′-azino-di-(3-ethylbenzthiazolinesulfonate) (ABTS, Boehringer-Mannheim, Indianapolis, Ind.) and 0.5% (v/v) hydrogen peroxide. Absorbance was assessed at 405 nanometers. Net gD-1 or LT-α binding was calculated by subtracting the amount of secondary antibody bound with HveA from the amount of ligand bound with HveA.
# The results of these experiments are depicted in FIG. 1A.
# [2] = target: T1, HveA (200t); assay: competition ELISA, gD-1(306t) binding with immobilized HveA (200t); settings: for inhibition of binding of soluble wild type gD-1(306t) with immobilized HveA (200t): peptide at 0.5 millimolar, FIG. 4A; for inhibitory effect upon binding of gD-1 with HveA: FIG. 4C
# Procedure: as §1, §2
# [3] = target: T2, HveA (200t); assay: competition ELISA, gD-1 (Δ290-299t) binding with HveA; settings: FIG. 4B
# Procedure: Several ELISAs were performed to analyze interaction among HveA, the isolated phage peptides, gD, and LT-α. In these assays, microtiter wells were coated for 2 hours at 22° C. with 40 nanograms of HveA(200t), human factor H, trout complement C3, BSA, milk, or ovalbumin. Nonspecific binding in the wells was blocked using PBS containing 1% (w/v) BSA for 1 hour at 22° C. For competition assays, serial dilutions of gD-1 (306t), gD-1 (Δ290-299t), BSA, peptide BP-1, BP-2, or an unrelated cyclic peptide having the amino acid sequence ICVVQDWGHHRCT (SEQ ID NO:3) was added to each well. […]
# as §2, with “Color was developed by adding 2,2′-azino-di-(3-ethylbenzthiazolinesulfonate) (ABTS, Boehringer-Mannheim, Indianapolis, Ind.) and 0.5% (v/v) hydrogen peroxide.” left out
# [4] = test system: HSV-1 entry into CHO-HveA cells; assay: HSV entry assay, CHO-HveA cells (β-galactosidase reporter virus KOS-hrR3); assay type: cell-based; settings: FIG. 7A
# Procedure: (§3) CHO-HveA, CHO-HveC, and Vero cells were plated on 96-well dishes and incubated overnight. The cells were chilled at 4° C. for 10, minutes and then the medium was replaced with Ham's F-12 (CHO-HveA and CHO-HveC cells) or with Dulbecco's modified Eagle medium (DMEM) (Vero cells). These media were supplemented with 10% (v/v) bovine fetal serum and 10 millimolar HEPES, containing various concentrations of peptide, which had been previously filtered through a 0.2 micrometer pore size filter (Corning Glass Works, Corning, N.Y.). The plates were rocked at 4° C. for 90 minutes, at which time KOS-hrR3 virus (5×10^5 PFU/well) was added. The plates were rocked at 4° C. for 90 additional minutes and then incubated at 37° C. for 5 hours. Cells were lysed using 20% (v/v) Nonidet P-40 and β-galactosidase substrate (o-nitrophenyl-β-D-glucopyranoside) was added to each well. β-galactosidase activity was measured at selected time points using a Specromax 250 enzyme-linked immunosorbent assay (ELISA) reader.
# Inhibition of gD-1 binding with HveA mediated by BP-2, as indicated in FIGS. 4A-4C, raised the question of whether this peptide has a blocking effect on viral entry into mammalian cells. To test this possibility, the effect of BP-2 and related peptides (i.e., BP-1, BP-2 (3, 9 Ala), scrambled BP-2, control peptide, and gD-1(Δ290-299t)) on HSV-1 entry into CHO cells expressing either HveA (CHO-HveA cells), or HveC (CHO-HveC cells), and into Vero cells was examined. Cell monolayers were incubated with increasing concentrations of peptide at 4° C. for 90 minutes. Following incubation, the cells were infected with the β-galactosidase reporter virus, KOS-hrR3. The results of these experiments are depicted in FIGS. 7A and 7B.
# [5] = test system: HSV entry into Vero cells; assay: HSV entry assay, Vero cells; assay type: cell-based, HSV-1; settings: KOS-hrR3 virus; FIG. 7B
# Procedure: as §3
# (§4) Inhibition of gD-1 binding with HveA mediated by BP-2, as indicated in FIGS. 4A-4C, raised the question of whether this peptide has a blocking effect on viral entry into mammalian cells. […]
# [6] = test system: HSV entry into CHO-HveC cells; assay: HSV entry assay, CHO-HveC cells; assay type: cell-based, HSV-1; settings: KOS-hrR3 virus
# Procedure: as §3, §4
molecule,measurement,setting,value
"BP-2: cyclic 12-residue HveA-binding peptide, SEQ ID NO:5, from the 12-mer phage library (GSCDGFRVCYMH; disulfide 3-9 (inferred))",inhibition of binding of phage displaying BP-1 to HveA,[1]; FIG. 3B,inhibited
same,inhibition of binding of soluble wild type gD-1(306t) with immobilized HveA (200t),[2],80%
same,inhibition of binding of gD-1 (Δ290-299t) with HveA,[3],40%
same,blocking of HSV-1 entry into CHO-HveA cells,[4],blocked entry
same,effect on HSV entry into Vero cells,[5],Neither BP-1 or BP-2 had any effect
same,effect on HSV entry into CHO-HveC cells,[6],Neither BP-1 or BP-2 had any effect
"ICVVQDWGHHRCT [cyclic control peptide, reference compound]",inhibitory effect upon binding of gD-1 with HveA,[2],no inhibitory effect
"scrambled sequence BP-2: scrambled primary sequence of the parental cyclic BP-2, maintaining the position of the two cysteines, SEQ ID NO:6 (YMCRFVDGCHGS; disulfide 3-9 (inferred))",inhibitory effect upon binding of gD-1 with HveA,[2],no inhibitory effect
"BP-1 (4, 10 Acm): linear BP-1 peptide generated by reduction and alkylation of the 26-mer peptide, SEQ ID NO:1 (SISC(Acm)SRGLVC(Acm)LLPRLTNESGNDRFDS)",inhibitory effect upon binding of gD-1 with HveA,[2],no inhibitory effect
"BP-2 (3, 9 Ala): linear form of BP-2 generated by substitution of the cysteine residues with alanine, SEQ ID NO:2 (GSADGFRVAYMH; Peptide corresponds to BP-2 (3,9 Ala))",inhibitory effect upon binding of gD-1 with HveA,[2],no inhibitory effect
"BP-1: cyclic 26-residue HveA-binding peptide, SEQ ID NO:4, from the 27-mer phage library (SISCSRGLVCLLPRLTNESGNDRFDS; disulfide 4-10 (inferred))",inhibition of binding of phage displaying BP-2 to HveA,[1]; FIG. 3A,vice versa
same,inhibition of binding of soluble wild type gD-1(306t) with immobilized HveA (200t),[2],20%
same,blocking of HSV-1 entry into CHO-HveA cells,[4],neither BP-1 nor any of the BP-2 analogs blocked virus entry
same,effect on HSV entry into Vero cells,[5],Neither BP-1 or BP-2 had any effect
same,effect on HSV entry into CHO-HveC cells,[6],Neither BP-1 or BP-2 had any effect
B1,inhibition of HveA-binding phage clones binding with HveA (200t),"[1]; fluid-phase soluble competitor, FIG. 1A",significantly inhibited
same,blocking of HSV-1 entry into CHO-HveA cells,[4],failed to do so
